Assay results as given in the supplement of paper PMC10567573.

B1: PTPN9 (parent)
chain: NKWTVQYNVSPLSWNVAVKFLMAR
B2: CDC25B (parent)
chain: FVDILESDLKDDDAVPPGMESLIS

Variants of: B1
Test: protein stability index of a GFP-peptide fusion (GPS, HEK-293T) (PSI 1-6); higher = more stable
Settings: c terminus: a fixed tail appended
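Note: lentivirally expressed fusions sorted by FACS into six bins by GFP to DsRed ratio, PSI derived from sequencing read proportions per bin multiplied by bin number.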

Variant	protein stability index
NKWTVQYNVSPLSWNVACKFLMAR	2.73
NKWTVQYNVSPLSWNVAVKFLRAR	1.88
NKWTVQANVSPLSWNVAVKFLMAR	3.49
NKWTVQYNVSPLSWNVAVKFYMAR	2.89
NKWTVQYNVSPLSWNVAWKFLMAR	1.77
NKWTVQYNVSSLSWNVAVKFLMAR	4.04
NKWTVQYNVSPLSLNVAVKFLMAR	2.71
NKWTVQYNVSPLSWNVKVKFLMAR	2.28
NKWTVQYNVSPLSWNVAVKKLMAR	1.4
NKWTVQYNVSPLSWNVHVKFLMAR	2.23
NKWTVQYNVSPLSWNVAVKFLKAR	2.73
NKWTVQYNVSLLSWNVAVKFLMAR	2.59
NKWQVQYNVSPLSWNVAVKFLMAR	2.27
NKWTVQHNVSPLSWNVAVKFLMAR	1.68
NKWTVQYNVSPLSWNGAVKFLMAR	2.55
NKWTVQYNVSPWSWNVAVKFLMAR	3.11
NKWTVQYNVSPLSWNVIVKFLMAR	3.65
NKWTVQYNVSPLSWNVAVKFLMMR	3.33
NKWTVQYNVSPLSWNVAVKFLCAR	2.06
NKWTTQYNVSPLSWNVAVKFLMAR	3.23
NKWTVQYNISPLSWNVAVKFLMAR	4.2
NKWTVQYNVSPLSWNVAVKELMAR	2.68
VKWTVQYNVSPLSWNVAVKFLMAR	2.06
NKWTVQYNVSPLSWNVAVKFLMCR	1.95
NKWTVQYNVSPLSWAVAVKFLMAR	3.46

Variant	protein stability index
NKWTVQYNVSPLSWNVAVKFKMAR	2.5
NKWTVQYNVSPLSWNVATKFLMAR	2.76
NKWTVQYNVSPLSINVAVKFLMAR	3.02
NKWTVQYNVSPLSWNYAVKFLMAR	2.6
NKWTVQYCVSPLSWNVAVKFLMAR	3.2
NKWTVQYNVSPLWWNVAVKFLMAR	2.65
NKWTVQYNVSPLSWNVAVNFLMAR	1.63
NKWTVQYNVSPLSWNVAGKFLMAR	1.8
NKWTVQYNVSPLSWNVAQKFLMAR	1.49
NKWTVQYNVSPLSHNVAVKFLMAR	2.15
NKWTVQYNVSPLSWNKAVKFLMAR	3.3
NKWTVQYNVSPLSWNVAKKFLMAR	2.72
NKWTVQYNVMPLSWNVAVKFLMAR	2.81
NKWTVQYAVSPLSWNVAVKFLMAR	1.49
NKWTVQYNYSPLSWNVAVKFLMAR	2.1
NKWTVQYNVSPLSWNVAVFFLMAR	1.89
NKWTVQYNVSPLSWNVAVKFAMAR	3.37
NKWTVQYNVSPLSWNVAVYFLMAR	3.14
NKWTVQYNVSPLSWNVRVKFLMAR	1.47
NYWTVQYNVSPLSWNVAVKFLMAR	2.49
NKWTVQYNVSPLSWNVAVKFLMFR	2.72
NKWTVQDNVSPLSWNVAVKFLMAR	1.91
NKWTVGYNVSPLSWNVAVKFLMAR	1.7
NKWTVQYPVSPLSWNVAVKFLMAR	1.68
SKWTVQYNVSPLSWNVAVKFLMAR	1.54

Variant	protein stability index
NKWTQQYNVSPLSWNVAVKFLMAR	1.92
NKWTVQYNVSPCSWNVAVKFLMAR	2.9
NKWTVQYNVSPLSWNVAVKFEMAR	1.9
NNWTVQYNVSPLSWNVAVKFLMAR	1.83
NKWTVQYNVSPLSWNVALKFLMAR	2.72
NKWYVQYNVSPLSWNVAVKFLMAR	3.46
NKWTVQYNVSPLPWNVAVKFLMAR	2.31
NKVTVQYNVSPLSWNVAVKFLMAR	2.08
NKWTVQYNVSPLSWNVAVKFLMQR	2.55
NKWTVQVNVSPLSWNVAVKFLMAR	3.44
NKWTVQYNVSPLSWNVAVKFNMAR	1.72
NKWTVQYNVSPLSWNVAAKFLMAR	2.48
NKWTVQYNVSPLSWNVFVKFLMAR	1.58
NKWTVQYNVSPVSWNVAVKFLMAR	2.89
NKWTVQYNVSPLSWNVAVKFLMAY	2.66
NKWTVQYNVSPLSYNVAVKFLMAR	2.01
NKWTVQYNVSPLSANVAVKFLMAR	2.09
NKWTVQYNVSPLSWNVARKFLMAR	2.08
NKWMVQYNVSPLSWNVAVKFLMAR	2.57
NKWTVQYYVSPLSWNVAVKFLMAR	3.61
NKWTVQYNVSPLSWNVAVKFGMAR	1.73
NLWTVQYNVSPLSWNVAVKFLMAR	3.54
NKWTVQYNQSPLSWNVAVKFLMAR	1.43
NKWTVQYNVSPLSWNVAVKCLMAR	1.68

Variants of: B2
Test: as above
Settings: c terminus: a fixed tail appended

Variant	protein stability index
AVDILESDLKDDDAVPPGMESLIS	5
CVDILESDLKDDDAVPPGMESLIS	4.49
DVDILESDLKDDDAVPPGMESLIS	5.24
EVDILESDLKDDDAVPPGMESLIS	5.37
GVDILESDLKDDDAVPPGMESLIS	5.23
HVDILESDLKDDDAVPPGMESLIS	5.4
IVDILESDLKDDDAVPPGMESLIS	4.33
KVDILESDLKDDDAVPPGMESLIS	5.17
LVDILESDLKDDDAVPPGMESLIS	4.81
MVDILESDLKDDDAVPPGMESLIS	4.59
NVDILESDLKDDDAVPPGMESLIS	5.3
PVDILESDLKDDDAVPPGMESLIS	5.46
QVDILESDLKDDDAVPPGMESLIS	5.4
RVDILESDLKDDDAVPPGMESLIS	4.96
SVDILESDLKDDDAVPPGMESLIS	5.39
TVDILESDLKDDDAVPPGMESLIS	5.31
VVDILESDLKDDDAVPPGMESLIS	4.08
WVDILESDLKDDDAVPPGMESLIS	2.5
YVDILESDLKDDDAVPPGMESLIS	3.83
FADILESDLKDDDAVPPGMESLIS	4.51
FCDILESDLKDDDAVPPGMESLIS	3.65
FDDILESDLKDDDAVPPGMESLIS	5.14
FEDILESDLKDDDAVPPGMESLIS	5.29

Variant	protein stability index
FFDILESDLKDDDAVPPGMESLIS	4.08
FGDILESDLKDDDAVPPGMESLIS	3.81
FHDILESDLKDDDAVPPGMESLIS	4.68
FIDILESDLKDDDAVPPGMESLIS	3.8
FKDILESDLKDDDAVPPGMESLIS	4.67
FLDILESDLKDDDAVPPGMESLIS	3.73
FMDILESDLKDDDAVPPGMESLIS	4.76
FNDILESDLKDDDAVPPGMESLIS	4.96
FPDILESDLKDDDAVPPGMESLIS	4.8
FQDILESDLKDDDAVPPGMESLIS	3.98
FRDILESDLKDDDAVPPGMESLIS	4.31
FSDILESDLKDDDAVPPGMESLIS	5.04
FTDILESDLKDDDAVPPGMESLIS	4.43
FWDILESDLKDDDAVPPGMESLIS	3.32
FYDILESDLKDDDAVPPGMESLIS	4.29
FVAILESDLKDDDAVPPGMESLIS	2.65
FVCILESDLKDDDAVPPGMESLIS	2.4
FVEILESDLKDDDAVPPGMESLIS	3.46
FVFILESDLKDDDAVPPGMESLIS	1.6
FVGILESDLKDDDAVPPGMESLIS	2.83
FVHILESDLKDDDAVPPGMESLIS	2.91
FVIILESDLKDDDAVPPGMESLIS	2.75
FVKILESDLKDDDAVPPGMESLIS	2.65

Variant	protein stability index
FVLILESDLKDDDAVPPGMESLIS	1.93
FVMILESDLKDDDAVPPGMESLIS	1.92
FVNILESDLKDDDAVPPGMESLIS	2.81
FVPILESDLKDDDAVPPGMESLIS	2.93
FVQILESDLKDDDAVPPGMESLIS	3.04
FVRILESDLKDDDAVPPGMESLIS	2.12
FVSILESDLKDDDAVPPGMESLIS	2.96
FVTILESDLKDDDAVPPGMESLIS	2.39
FVVILESDLKDDDAVPPGMESLIS	1.86
FVWILESDLKDDDAVPPGMESLIS	1.91
FVYILESDLKDDDAVPPGMESLIS	2.15
FVDALESDLKDDDAVPPGMESLIS	4.18
FVDCLESDLKDDDAVPPGMESLIS	3.91
FVDDLESDLKDDDAVPPGMESLIS	4.54
FVDELESDLKDDDAVPPGMESLIS	4.52
FVDFLESDLKDDDAVPPGMESLIS	2.8
FVDGLESDLKDDDAVPPGMESLIS	3.46
FVDHLESDLKDDDAVPPGMESLIS	3
FVDKLESDLKDDDAVPPGMESLIS	2
FVDLLESDLKDDDAVPPGMESLIS	2.75
FVDMLESDLKDDDAVPPGMESLIS	2.47
FVDNLESDLKDDDAVPPGMESLIS	4.34
FVDPLESDLKDDDAVPPGMESLIS	4.03

Variant	protein stability index
FVDQLESDLKDDDAVPPGMESLIS	3.75
FVDRLESDLKDDDAVPPGMESLIS	3.11
FVDSLESDLKDDDAVPPGMESLIS	4.05
FVDTLESDLKDDDAVPPGMESLIS	3.37
FVDVLESDLKDDDAVPPGMESLIS	3.13
FVDWLESDLKDDDAVPPGMESLIS	2.29
FVDYLESDLKDDDAVPPGMESLIS	2.52
FVDIAESDLKDDDAVPPGMESLIS	3.84
FVDICESDLKDDDAVPPGMESLIS	3.02
FVDIDESDLKDDDAVPPGMESLIS	4.61
FVDIEESDLKDDDAVPPGMESLIS	4.46
FVDIFESDLKDDDAVPPGMESLIS	2.35
FVDIGESDLKDDDAVPPGMESLIS	3.73
FVDIHESDLKDDDAVPPGMESLIS	3.7
FVDIIESDLKDDDAVPPGMESLIS	2.46
FVDIKESDLKDDDAVPPGMESLIS	3.63
FVDIMESDLKDDDAVPPGMESLIS	3.57
FVDINESDLKDDDAVPPGMESLIS	3.81
FVDIPESDLKDDDAVPPGMESLIS	3.75
FVDIQESDLKDDDAVPPGMESLIS	3.67
FVDIRESDLKDDDAVPPGMESLIS	2.94
FVDISESDLKDDDAVPPGMESLIS	4.58
FVDITESDLKDDDAVPPGMESLIS	3.51

Variant	protein stability index
FVDIVESDLKDDDAVPPGMESLIS	3.03
FVDIWESDLKDDDAVPPGMESLIS	1.85
FVDIYESDLKDDDAVPPGMESLIS	2.8
FVDILASDLKDDDAVPPGMESLIS	2.04
FVDILCSDLKDDDAVPPGMESLIS	2.13
FVDILDSDLKDDDAVPPGMESLIS	2.88
FVDILFSDLKDDDAVPPGMESLIS	2.68
FVDILGSDLKDDDAVPPGMESLIS	2.31
FVDILHSDLKDDDAVPPGMESLIS	2.55
FVDILISDLKDDDAVPPGMESLIS	1.93
FVDILKSDLKDDDAVPPGMESLIS	2.84
FVDILLSDLKDDDAVPPGMESLIS	2.45
FVDILMSDLKDDDAVPPGMESLIS	2.38
FVDILNSDLKDDDAVPPGMESLIS	3.13
FVDILPSDLKDDDAVPPGMESLIS	2.37
FVDILQSDLKDDDAVPPGMESLIS	2.89
FVDILRSDLKDDDAVPPGMESLIS	2.2
FVDILSSDLKDDDAVPPGMESLIS	2.54
FVDILTSDLKDDDAVPPGMESLIS	2.58
FVDILVSDLKDDDAVPPGMESLIS	2.19
FVDILWSDLKDDDAVPPGMESLIS	2.32
FVDILYSDLKDDDAVPPGMESLIS	2.33
